Assay results: PMC2935145

Molecular target: Hr domain from the Acidothermus cellulolyticus P_(1B-5)-ATPase (P_(1B-5)-Hr) (Acidothermus cellulolyticus 11B)
Assay: SEC

stoichiometry N: 2
Substance: Hr domain from the Acidothermus cellulolyticus P_(1B-5)-ATPase (P_(1B-5)-Hr) (domain or fragment)
